Measured values published in patent publication US20140341881A1 (DERMADIS, published 2014).

Assays:
human kallikrein 2 (hK2) [1] = molecular target: T1, human kallikrein 2 (hK2) (human, UniProt P20151 25-261); experiment: cell-based or functional assay
[2] = molecular target: prostate specific antigen (PSA, hK3) (human, UniProt P07288 25-261); experiment: cell-based or functional assay
human kallikrein hK1 = human kallikrein hK1 (human, UniProt P06870 25-262); experiment: cell-based or functional assay
[3] = molecular target: urokinase plasminogen activator (uPA) (UniProt P00749 21-431, limits assumed); experiment: cell-based or functional assay
human kallikrein 2 (hK2) [4] = molecular target: T1, human kallikrein 2 (hK2); experiment: progress curve, pseudo-first order, fluorogenic substrate
Experimental: (§1) Under these conditions, a fixed amount of enzyme (2 nM) was mixed with different concentrations of inhibitor (0-800 nM) and an excess of substrate (10 μM). Each reaction was made in reaction buffer (50 mM Tris pH 7.5, 150 mM NaCl, 0,05% Triton X-100, 0.01% BSA) at 25° C. for 45 min and the rate of product formation was measured using a FLₓ800 fluorescence 96-well microplate reader (Biotek, USA). In this model, inhibition is considered to be irreversible over the course of reaction and the progress of enzyme activity is expressed by product formation (P), beginning at a rate (vz) and is inhibited over time (t) at a first-order rate (kobs), rate constant that is dependent only on inhibitor concentration.

human kallikrein 2 (hK2) [5] = molecular target: T1, human kallikrein 2 (hK2); experiment: residual enzyme activity against [I]o/[E]o, fluorogenic substrate
Experimental: (§2) The stoichiometry of inhibition (SI) values were determined for the inhibition of rACTWT and its variants with hK2 and different other enzymes. An initial test was made with a molar excess of rACT (100 fold) over hK2, PSA, hK1, chymotrypsin (Chtr), plasma kallikrein (PK), urokinase (uPA) and human neutrophile elastase (HNE) enzymes. The reaction was carried out for 30 min at 25° C. (90 min at 37° C. for PSA) in reaction buffer (50 mM Tris pH 7.5, 150 mM NaCl, 0,05% Triton X-100, 0.01% BSA) and residual enzyme activity was measured by adding fluorescent substrates (Z-Phe-Arg-AMC for hK1, hK2 and PK, Suc-Ala-Ala-Pro-Phe-AMC for Chtr, Z-Gly-Gly-Arg-AMC for uPA, MeOSuc-Ala-Ala-Pro-Val-AMC for HNE, and CFP-TFRSA-YFP (TFRSA SEQ ID NO:137) for PSA). Activity of enzyme in presence of inhibitors was compared to uninhibited reaction. For reactions where an inhibition was observed, SI was determined by incubating different concentrations of recombinant serpins. Using linear regression analysis of fractional activity (velocity of inhibited enzyme reaction/velocity of uninhibited enzyme reaction) versus the molar ratio of the inhibitor to enzyme ([Iₒ]/[Eₒ]), the stoichiometry of inhibition, corresponding to the abscissa intercept, was obtained.

[6] = molecular target: T2, human plasma kallikrein (PK) (human, UniProt P03952 20-638); experiment: cell-based or functional assay
T2 sequence (P03952 20-638 limits assumed): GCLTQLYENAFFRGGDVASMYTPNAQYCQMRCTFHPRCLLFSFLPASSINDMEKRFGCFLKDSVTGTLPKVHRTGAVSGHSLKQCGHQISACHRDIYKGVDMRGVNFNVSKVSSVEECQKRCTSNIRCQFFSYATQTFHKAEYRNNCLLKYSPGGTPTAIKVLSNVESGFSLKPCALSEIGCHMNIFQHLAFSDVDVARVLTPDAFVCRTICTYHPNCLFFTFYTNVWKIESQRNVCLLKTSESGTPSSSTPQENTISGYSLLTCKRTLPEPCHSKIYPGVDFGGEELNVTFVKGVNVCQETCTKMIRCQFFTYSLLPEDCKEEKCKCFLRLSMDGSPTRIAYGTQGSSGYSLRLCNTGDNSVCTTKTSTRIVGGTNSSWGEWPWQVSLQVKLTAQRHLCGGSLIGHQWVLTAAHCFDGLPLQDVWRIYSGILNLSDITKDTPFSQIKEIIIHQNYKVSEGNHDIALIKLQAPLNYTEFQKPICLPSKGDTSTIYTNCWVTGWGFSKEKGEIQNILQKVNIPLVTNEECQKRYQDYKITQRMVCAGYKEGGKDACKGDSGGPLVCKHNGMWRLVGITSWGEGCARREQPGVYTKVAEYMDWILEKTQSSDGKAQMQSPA

[7] = molecular target: T2, human plasma kallikrein (PK); experiment: progress curve, pseudo-first order, fluorogenic substrate
Experimental: as §1

[8] = molecular target: T2, human plasma kallikrein (PK); experiment: residual enzyme activity against [I]o/[E]o, fluorogenic substrate
Experimental: as §2

B1: rACT5.18 (other)
chain: MRGSHHHHHHSRHPNSPLDEENLTQENQDRGTHVDLGLASANVDFAFSLYKQLVLKAPDKNVIFSPLSISTALAFLSLGAHNTTLTEILKGLKFNLTETSEAEIHQSFQHLLRTLNQSSDELQLSMGNAMFVKEQLSLLDRFTEDAKRLYGSEAFATDFQDSAAAKKLINDYVKNGTRGKITDLIKDLDSQTMMVLVNYIFFKAKWEMPFDPQDTHQSRFYLSKKKWVMVPMMSLHHLTIPYFRDEELSCTVVELKYTGNASALFILPDQDKMEEVEAMLLPETLKRWRDSLEFREIGELYLPKFSISRDYNLNDILLQLGIEEAFTSKADLSGITGARNLAVSQVVHKAVLDVFEEGTEASAATAVKITERVSPVETRTIVRFNRPFLMIIVPTDTQNIFFMSKVTNPKQA
notes: recombinant ACT variant, RSL substrate peptide ERVSP; N-terminal His tag, E. coli TG1; also called MD518
- INHIBITION % (human kallikrein 2 (hK2) [1]): 73%
- INHIBITION % [2]: 0%
- INHIBITION % (human kallikrein hK1): 0%
- INHIBITION % [3]: 0%
- kon (human kallikrein 2 (hK2) [4]): 595 M⁻¹ s⁻¹
- SI (stoichiometry of inhibition) (human kallikrein 2 (hK2) [5]): 139

B2: rACT6.2 (other)
chain: MRGSHHHHHHSRHPNSPLDEENLTQENQDRGTHVDLGLASANVDFAFSLYKQLVLKAPDKNVIFSPLSISTALAFLSLGAHNTTLTEILKGLKFNLTETSEAEIHQSFQHLLRTLNQSSDELQLSMGNAMFVKEQLSLLDRFTEDAKRLYGSEAFATDFQDSAAAKKLINDYVKNGTRGKITDLIKDLDSQTMMVLVNYIFFKAKWEMPFDPQDTHQSRFYLSKKKWVMVPMMSLHHLTIPYFRDEELSCTVVELKYTGNASALFILPDQDKMEEVEAMLLPETLKRWRDSLEFREIGELYLPKFSISRDYNLNDILLQLGIEEAFTSKADLSGITGARNLAVSQVVHKAVLDVFEEGTEASAATAVKITRRSIDVETRTIVRFNRPFLMIIVPTDTQNIFFMSKVTNPKQA
notes: recombinant ACT variant, RSL substrate peptide RRSID; N-terminal His tag, E. coli TG1; also called MD62; MD 62
- INHIBITION % (human kallikrein 2 (hK2) [1]): 100%
- INHIBITION % (human kallikrein hK1): 0%
- INHIBITION % [6]: 100%
- INHIBITION % [3]: 0%
- kon (human kallikrein 2 (hK2) [4]): 6260 M⁻¹ s⁻¹
- kon [7]: 6220 M⁻¹ s⁻¹
- SI (stoichiometry of inhibition) (human kallikrein 2 (hK2) [5]): 25
- SI (stoichiometry of inhibition) [8]: 18

B3: rACT8.3 (other)
chain: MRGSHHHHHHSRHPNSPLDEENLTQENQDRGTHVDLGLASANVDFAFSLYKQLVLKAPDKNVIFSPLSISTALAFLSLGAHNTTLTEILKGLKFNLTETSEAEIHQSFQHLLRTLNQSSDELQLSMGNAMFVKEQLSLLDRFTEDAKRLYGSEAFATDFQDSAAAKKLINDYVKNGTRGKITDLIKDLDSQTMMVLVNYIFFKAKWEMPFDPQDTHQSRFYLSKKKWVMVPMMSLHHLTIPYFRDEELSCTVVELKYTGNASALFILPDQDKMEEVEAMLLPETLKRWRDSLEFREIGELYLPKFSISRDYNLNDILLQLGIEEAFTSKADLSGITGARNLAVSQVVHKAVLDVFEEGTEASAATAVKIRGRSELVETRTIVRFNRPFLMIIVPTDTQNIFFMSKVTNPKQA
notes: recombinant ACT variant, RSL substrate peptide RGRSE; N-terminal His tag, E. coli TG1; also called MD83; MD 83
- INHIBITION % (human kallikrein 2 (hK2) [1]): 100%
- INHIBITION % [2]: 0%
- INHIBITION % (human kallikrein hK1): 0%
- INHIBITION % [3]: 0%
- kon (human kallikrein 2 (hK2) [4]): 2440 M⁻¹ s⁻¹
- SI (stoichiometry of inhibition) (human kallikrein 2 (hK2) [5]): 34
